From US20260216242A1, “ALPP-SPECIFIC VARIANT ANTIGEN BINDING MOLECULES” (ALMAC DISCOVERY LIMITED, priority 2022, published 2026)

T1: ALPI His homodimer (Homo sapiens, UniProt P09923)
T1 sequence (P09923 with tags, fused parts or gaps): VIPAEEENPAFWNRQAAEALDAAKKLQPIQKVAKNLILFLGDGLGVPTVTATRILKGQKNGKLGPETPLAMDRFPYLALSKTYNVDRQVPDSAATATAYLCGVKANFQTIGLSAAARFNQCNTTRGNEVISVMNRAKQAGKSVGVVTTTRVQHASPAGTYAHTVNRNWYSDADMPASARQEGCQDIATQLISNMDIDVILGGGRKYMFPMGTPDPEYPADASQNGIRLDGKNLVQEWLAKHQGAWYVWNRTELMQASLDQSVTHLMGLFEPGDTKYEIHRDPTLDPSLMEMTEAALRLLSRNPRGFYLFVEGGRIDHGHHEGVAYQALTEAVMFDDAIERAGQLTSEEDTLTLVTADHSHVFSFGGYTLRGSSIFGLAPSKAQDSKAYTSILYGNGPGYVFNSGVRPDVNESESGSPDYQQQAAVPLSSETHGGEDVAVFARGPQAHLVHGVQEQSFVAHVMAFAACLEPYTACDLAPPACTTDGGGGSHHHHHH


How the values were obtained:
[1] = target: T2, ALPP (Homo sapiens, UniProt P05187); experiment: BLI binding kinetics, human ALPP immobilised on AR2G sensors (KD / KD apparent); conditions: for hALPP Ka / hALPP Kd: VHH domains
T2 sequence (P05187 with tags, fused parts or gaps): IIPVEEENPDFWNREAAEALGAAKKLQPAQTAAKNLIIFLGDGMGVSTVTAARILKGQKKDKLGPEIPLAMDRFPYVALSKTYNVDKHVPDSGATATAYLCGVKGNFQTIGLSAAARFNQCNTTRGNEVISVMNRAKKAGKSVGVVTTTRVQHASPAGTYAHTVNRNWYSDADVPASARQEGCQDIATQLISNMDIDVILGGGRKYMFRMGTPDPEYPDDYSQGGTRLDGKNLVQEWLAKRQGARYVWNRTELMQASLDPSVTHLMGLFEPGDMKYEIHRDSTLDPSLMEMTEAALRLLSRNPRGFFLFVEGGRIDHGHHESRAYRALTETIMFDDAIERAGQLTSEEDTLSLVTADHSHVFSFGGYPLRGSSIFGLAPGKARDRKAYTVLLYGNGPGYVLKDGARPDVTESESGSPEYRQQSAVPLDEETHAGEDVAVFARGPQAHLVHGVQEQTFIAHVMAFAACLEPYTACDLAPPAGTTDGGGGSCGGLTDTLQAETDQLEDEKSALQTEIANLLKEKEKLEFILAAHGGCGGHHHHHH
Method: Binding kinetics were determined using the Biolayer Interferometry (BLI) Octet K2 system (Sartorius). Human ALPP, ALPPL2, ALPL (each fused with a cysteine stabilised leucine zipper) and ALPI, (SEQ ID NO: 265, SEQ ID NO: 266 and SEQ ID NO: 267 and SEQ ID NO: 264 respectively) were immobilised in sodium acetate pH5 buffer to AR2G sensors using amine coupling. All assays were conducted in PBS with a plate temperature of 25° C. Ka (M^−1s^−1), Kd (s^−1) and KD (nM) values were determined using Octet Data Analysis High Throughput software (ForteBio) for Biolayer Interferometry.
(§1) Binding kinetics were determined using the Biolayer Interferometry (BLI) Octet K2 or R4 system (Sartorius). Human ALPP, ALPPL2 and ALPL all fused with a disulphide stabilised leucine zipper (SEQ ID NO: 265, SEQ ID NO: 266, and SEQ ID NO: 267) and ALPI His (SEQ ID NO: 264) were used in BLI experiments. For KD apparent measurements, the ALPP proteins were immobilised in sodium acetate pH5 buffer to AR2G sensors using amine coupling. To measure 1:1 interactions, AHC biosensors were used to immobilise Fc-fused proteins. All assays were conducted in HBS-EP with a plate temperature of 25° C. Ka (M^−1s^−1), Kd (s^−1) and KD (nM) values were determined using Octet Data Analysis High Throughput software (Sartorius) for Biolayer Interferometry.
as §1, with “NO:264)” for “NO: 264)”

[2] = target: T1, ALPI His homodimer; experiment: ELISA binding to ALPI; conditions: 500 ng purified VHH
Method: ELISA was used to test the binding and specificity of the VHHs. ALPP CysHis (SEQ ID NO: 263), ALPI His homodimer (SEQ ID NO: 264) or BSA (Thermo Fisher) were coated onto plates and 500 ng of each purified VHH added. Anti-Llama—HRP antibody was used for detection.

[3] = Thermal stability (Protein Thermal Shift assay); assay type: physicochemical; conditions: VHH domains, first derivative analysis
Method: Thermal stability assays used Applied Biosystems StepOne Real Time PCR system with the Protein Thermal Shift™ dye kit (Thermo Fisher). The assay mix was set up so that the protein was at a final concentration of 20 µM in 20 μL. 5 μL of Thermal Shift™ buffer was added alongside 2.5 μL 8× Thermal Shift™ Dye. Assays were run using the StepOne software and data analysed using Protein Thermal Shift™ software. All data are from first derivative analysis.

[4] = target: T2, ALPP; experiment: Epitope binning by BLI competition assay; assay type: binding; conditions: BLI competition on immobilised ALPP
Method: To determine epitope cross reactivity BLI competition assays were conducted. AR2G sensors were used and ALPP immobilised as above. ALPP sensors were then dipped into a well containing a saturating concentration of the initial binder for ten minutes to get an association curve. The sensor was then dipped into a well containing the same concentration of initial binder plus 20 nM of a secondary binding.
An increase in the association curve was indicative that the second VHH bound to a distinct epitope from the initial binder. Monomers with identical CDR3s were grouped as likely to be in the same epitope bin and only one from each group used in the epitope binning experiment.

hALPP Ka [1] [M⁻¹ s⁻¹] | hALPP Kd [1] [s⁻¹] | ELISA hALPI [2] | epitope bin [4] | Kd ([1]; VHH domains (His-tagged monomers), PBS, 25° C., read-out: hALPP KD) [nM] | Molecule | Tm [3] [°C]
237000 | <1e-07 | No Binding | one |  | B09: ALPP targeting VHH domain, SEQ ID NO: 21 (protein) VHH: QVQLVESGGGSVQAGGSLRLSCAASGPSLSHYAMGWFRQAPGKEREFVAGISWGGGRTSYTDSVKGRFTISRDNAKNTVYLQMNNLKPEDTGVYYCAGRYGRGRNVEYEYDYWGQGTQVTVSS | 77.1
149000 | 0.0000018 | No Binding |  |  | E11: ALPP targeting VHH domain, SEQ ID NO: 32 (protein) VHH: QVQLVESGGGSVQAGGSLRLSCAASGPSLSNFAMGWFRQPPGKEREFVAGISWGGGRTSYTDSVKGRFTISRDNAKNTVYLQMNNLKPEDTGVYYCAGRYGRGRNVEYEYDYWGQGTQVTVSS | 78.0
175000 | <1e-07 | No Binding |  |  | D08: ALPP targeting VHH domain, SEQ ID NO: 27 (protein) VHH: QVHLVESGGGSVQAGGSLRLSCAASGPSLSNYAMGWFRQAPGKEREFVAGISWGGGRTSYTDSVKGRFTISRDNAKNTVYLQMNNLKPEDTGVYYCAGRYGRGRNVEYEYDYWGQGTKVTVSS | 64.9
39200 | 0.000028 | No Binding |  |  | E12: ALPP targeting VHH domain, SEQ ID NO: 33 (protein) VHH: QVQLVESGGGSVQAGGSLRLSCAASGPSISNFAMGWFRQAPGKEREFVAGISWGGGRTNYLDSVKGRFTISRDNAKNMVHLQMNSLKPEDTTVYYCAGRYGRGRDVEYEYDYWGQGTQVTVSS | 55.5
360000 | <1e-07 | No Binding |  | < 0.01 | A12: ALPP targeting VHH domain, SEQ ID NO: 19 (protein) VHH: QVHLVECGGGSVQAGGFLRLSCAASGPSLSNYAMGRFRQAPGKEREFVAGISWGGGRTSYTDSVKGRFTISRDNAKNTVYLQMNNLEPEDTGVYYCAGRYGRGRNVEYEYDYWGQGTKVTVSS | 76.3
429000 | 0.000012 | No Binding |  |  | A08: ALPP targeting VHH domain, SEQ ID NO: 18 (protein) VHH: QVQLVESGGGLVQAGESLRLACAASGTIFSGNAVGWYRQAPEKQREWVSSITDYGDTDYAEAVKGRFTISRDNAKNTVYLQMNSLKPEDTAVYYCYVYQRGESEEYWGQGTKVTVSS | 71.4
394000 | <1e-07 | No Binding |  |  | C05: ALPP targeting VHH domain, SEQ ID NO: 23 (protein) VHH: QVQLVESGGGLVQAGGSLRLSCAASRRSFSEYAMGWFRQAPGKEREFVAAIGWSGVIEYADSVKGRFTISRDNAKDTVYLQMNSLKPEDTAVYYCAAGLGIRVVSQTPAYWGQGTQVTVSS | 80.6

Further lines, the molecule ahead of its results:

Molecule | hALPP Ka [1] [M⁻¹ s⁻¹] | hALPP Kd [1] [s⁻¹] | ELISA hALPI [2] | epitope bin [4] | Kd ([1]; VHH domains (His-tagged monomers), PBS, 25° C., read-out: hALPP KD) [nM] | Tm [3] [°C]
H09: ALPP targeting VHH domain, SEQ ID NO: 39 (protein) VHH: QVQLVESGGGSVQTGGSLRLSCAASGPSLSNYAMGWFRQAPGKEREFVAGISWGGGRTNYLDSVKGRFTISRDNAKNTMYLQMNSLKPEDTAVYYCAGRYGRGRDVEYEYDYWGQGTQVTVSS | 58600 | <1e-07 | No Binding |  |  | 68.8
D11: ALPP targeting VHH domain, SEQ ID NO: 29 (protein) VHH: QVQLVESGGGSVQAGGSLRLSCAASGPSLSNYAMGWFRQAPGKEREFVAGISWGGGRTSYTDSVKGRFTISRDNAKNTVYLQMNNLKPEDTGVYYCAGRYGRGRNVEYEYDYWGQGTMVTVSS | 97700 | <1e-07 | No Binding |  |  | 78.1
C06: ALPP targeting VHH domain, SEQ ID NO: 24 (protein) VHH: QVQLVESGGGLVQPGGSLRVSCAASGPSLSNYAMGWFRQAPGKEREFVAGISWGGGRTSYTDSVKGRFTISRDNAKNTVYLQMNNLKPEDTGVYYCAGRYGRGRNVEYEYDYWGQGTQVTVSS | 368000 | <1e-07 | No Binding |  |  | 71.6
H10: ALPP targeting VHH domain, SEQ ID NO: 40 (protein) VHH: QVQLVESGGGSVQTGGSLRLSCAASGPSLSNYAMGWFRQAPGKEREFVAGISWGGGRTNYLDSVKGRFTISRDNAKNTMYLQMNSLKPEDAAVYYCAGRYGRGRDVEYEYDYWGQGTQVTVSS | 45900 | 0.0000085 | No Binding |  |  | 64.9
F09: ALPP targeting VHH domain, SEQ ID NO: 36 (protein) VHH: QVQLVESGGGSVQAGGSLRLSCAASGPSLSNYAMGWFRQAPGKEREFVAGISWGGGRTSCTDSVKGRFTISRDNAKNTVYLQMNNLKPEDTGVYYCAGRYGRGRNVEYEYDYWGQGTQVTVSS | 40600 | <1e-07 | No Binding |  |  | 72.1
F12: ALPP targeting VHH domain, SEQ ID NO: 37 (protein) VHH: QVQLVESGGGLVEAGGSLRLSCAVSGSALSDYNIGWFRQAPGKEREFVARKTWDGSSTKYDDSVKGRFTVSIDNAKNTAYLQMNSLKTEDTAVYYCAAGRYSRVRGWEYDYWGQRTQVTVSS | 38600 | <1e-07 | No Binding |  |  | 62.9
